B2: HOOK3-SNAPf labelled with Alexa 647 (natural protein, human, UniProt Q86VS8 1-718, looked up)
chain: MFSVESLERAELCESLLTWIQTFNVDAPCQTVEDLTNGVVMAQVLQKIDPAYFDENWLNRIKTEVGDNWRLKISNLKKILKGILDYNHEILGQQINDFTLPDVNLIGEHSDAAELGRMLQLILGCAVNCEQKQEYIQAIMMMEESVQHVVMTAIQELMSKESPVSAGNDAYVDLDRQLKKTTEELNEALSAKEEIAQRCHELDMQVAALQEEKSSLLAENQVLMERLNQSDSIEDPNSPAGRRHLQLQTQLEQLQEETFRLEAAKDDYRIRCEELEKEISELRQQNDELTTLADEAQSLKDEIDVLRHSSDKVSKLEGQVESYKKKLEDLGDLRRQVKLLEEKNTMYMQNTVSLEEELRKANAARSQLETYKRQVVELQNRLSEESKKADKLDFEYKRLKEKVDSLQKEKDRLRTERDSLKETIEELRCVQAQEGQLTTQGLMPLGSQESSDSLAAEIVTPEIREKLIRLQHENKMLKLNQEGSDNEKIALLQSLLDDANLRKNELETENRLVNQRLLEVQSQVEELQKSLQDQGSKAEDSVLLKKKLEEHLEKLHEANNELQKKRAIIEDLEPRFNNSSLKIEELQEALRKKEEEMKQMEERYKKYLEKAKSVIRTLDPKQNQGAAPEIQALKNQLQERDRLFHSLEKEYEKTKSQREMEEKYIVSAWYNMGMTLHKKAAEDRLASTGSGQSFLARQRQATSSRRSYPGHVQPATAR
modifications: benzylguanine conjugated fluorophore (Alexa 647) on the SNAPf domain
notes: HOOK3, amplified from a human cDNA library, full length; pFastBacM13-8xHis-ZZ-LTLT-HOOK3-SNAPf; An untagged full-length HOOK3 from the same backbone was used in assays with Lis1; source: Sf9 (baculovirus), purified (Ni-NTA, IgG Sepharose, TEV cleavage); not shown: 8xHis, N-terminal, cleaved; ZZ, N-terminal, cleaved; SNAPf, C-terminal, kept
B4: GST-KIF1C stalk 674-922 (domain or fragment, human, UniProt O43896 674-922, looked up)
chain: SDSGDDSDKRSCEESWRLISSLREQLPPTTVQTIVKRCGLPSSGKRRAPRRVYQIPQRRRLQGKDPRWATMADLKMQAVKEICYEVALADFRHGRAEIEALAALKMRELCRTYGKPDGPGDAWRAVARDVWDTVGEEEGGGAGSGGGSEEGARGAEVEDLRAHIDKLTGILQEVKLQNSSKDRELQALRDRMLRMERVIPLAQDHEDENEEGGEVPWAPPEGSEAAEEAAPSDRMPSARPPSPPLSSWE
notes: also called KIF1CS2; source: E. coli SoluBL21, purified (Ni-NTA, Superdex 200); not shown: GST, N-terminal, kept

Experiments:
[1] = target: B2; assay: cell-based or functional assay
[2] = target: T1, full-length FTS-HOOK3-FHIP1B (FHF) complex (human, UniProt Q9H8T0 1-292; Q86VS8 1-718; Q8N612 1-972); assay: cell-based or functional assay
T1 sequence (Q9H8T0 whole entry, chain 1 of 2): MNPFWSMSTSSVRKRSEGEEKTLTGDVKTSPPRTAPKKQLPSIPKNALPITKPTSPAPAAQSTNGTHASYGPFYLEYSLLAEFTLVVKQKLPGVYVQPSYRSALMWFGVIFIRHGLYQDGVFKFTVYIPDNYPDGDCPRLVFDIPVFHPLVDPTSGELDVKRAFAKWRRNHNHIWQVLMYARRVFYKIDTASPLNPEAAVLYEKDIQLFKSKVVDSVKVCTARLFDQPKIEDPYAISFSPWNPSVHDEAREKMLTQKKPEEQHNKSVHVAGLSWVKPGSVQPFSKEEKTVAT
T1 sequence (Q8N612 whole entry, chain 3 of 2): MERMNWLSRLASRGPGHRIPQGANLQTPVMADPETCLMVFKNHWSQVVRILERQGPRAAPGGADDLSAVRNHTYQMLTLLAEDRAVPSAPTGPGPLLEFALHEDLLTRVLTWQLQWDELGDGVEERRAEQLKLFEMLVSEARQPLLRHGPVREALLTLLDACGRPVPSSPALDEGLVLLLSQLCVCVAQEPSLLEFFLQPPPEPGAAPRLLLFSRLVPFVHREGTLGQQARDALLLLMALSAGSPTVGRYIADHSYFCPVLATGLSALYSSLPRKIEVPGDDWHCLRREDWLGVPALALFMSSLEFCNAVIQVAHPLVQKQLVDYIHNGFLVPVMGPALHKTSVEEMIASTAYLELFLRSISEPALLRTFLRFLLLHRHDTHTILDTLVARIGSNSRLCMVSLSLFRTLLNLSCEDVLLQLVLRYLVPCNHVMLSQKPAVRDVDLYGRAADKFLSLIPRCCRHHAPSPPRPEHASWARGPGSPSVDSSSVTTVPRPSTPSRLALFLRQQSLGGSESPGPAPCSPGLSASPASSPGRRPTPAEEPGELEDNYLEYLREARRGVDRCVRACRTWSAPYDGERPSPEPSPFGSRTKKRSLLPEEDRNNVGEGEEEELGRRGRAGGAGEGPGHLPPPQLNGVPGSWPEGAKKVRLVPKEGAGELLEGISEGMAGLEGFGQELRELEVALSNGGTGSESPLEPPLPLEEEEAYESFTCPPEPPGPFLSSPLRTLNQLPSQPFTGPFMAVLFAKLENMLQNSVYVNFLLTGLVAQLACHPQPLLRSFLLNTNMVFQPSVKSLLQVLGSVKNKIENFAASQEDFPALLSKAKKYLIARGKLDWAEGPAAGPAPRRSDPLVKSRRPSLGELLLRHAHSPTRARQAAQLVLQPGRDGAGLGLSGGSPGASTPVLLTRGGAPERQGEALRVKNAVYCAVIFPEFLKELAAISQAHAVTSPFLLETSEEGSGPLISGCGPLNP

[3] = target: T1, full-length FTS-HOOK3-FHIP1B (FHF) …; assay: mass photometry; full-length FHF with KIF1C stalk, diluted to 100 nM in GF150; Refeyn TwoMP; conditions: both partners purified
full-length KIF1C-GFP = target: T2, full-length KIF1C-GFP (human, UniProt O43896 1-1103); assay: single-molecule TIRF co-movement on microtubules; TMR-dynein, dynactin, HOOK3-Alexa 647 and KIF1C-GFP mixed (200 nM dynein, 200 nM dynactin, 1600 nM adaptor, 180 nM KIF1C-GFP, ~75 mM KCl), diluted and imaged on taxol microtubules at 25 °C; controls with single components omitted; conditions: both partners purified
T2 construct: KIF1C, human, full length; also called KFL
T2 sequence (looked up): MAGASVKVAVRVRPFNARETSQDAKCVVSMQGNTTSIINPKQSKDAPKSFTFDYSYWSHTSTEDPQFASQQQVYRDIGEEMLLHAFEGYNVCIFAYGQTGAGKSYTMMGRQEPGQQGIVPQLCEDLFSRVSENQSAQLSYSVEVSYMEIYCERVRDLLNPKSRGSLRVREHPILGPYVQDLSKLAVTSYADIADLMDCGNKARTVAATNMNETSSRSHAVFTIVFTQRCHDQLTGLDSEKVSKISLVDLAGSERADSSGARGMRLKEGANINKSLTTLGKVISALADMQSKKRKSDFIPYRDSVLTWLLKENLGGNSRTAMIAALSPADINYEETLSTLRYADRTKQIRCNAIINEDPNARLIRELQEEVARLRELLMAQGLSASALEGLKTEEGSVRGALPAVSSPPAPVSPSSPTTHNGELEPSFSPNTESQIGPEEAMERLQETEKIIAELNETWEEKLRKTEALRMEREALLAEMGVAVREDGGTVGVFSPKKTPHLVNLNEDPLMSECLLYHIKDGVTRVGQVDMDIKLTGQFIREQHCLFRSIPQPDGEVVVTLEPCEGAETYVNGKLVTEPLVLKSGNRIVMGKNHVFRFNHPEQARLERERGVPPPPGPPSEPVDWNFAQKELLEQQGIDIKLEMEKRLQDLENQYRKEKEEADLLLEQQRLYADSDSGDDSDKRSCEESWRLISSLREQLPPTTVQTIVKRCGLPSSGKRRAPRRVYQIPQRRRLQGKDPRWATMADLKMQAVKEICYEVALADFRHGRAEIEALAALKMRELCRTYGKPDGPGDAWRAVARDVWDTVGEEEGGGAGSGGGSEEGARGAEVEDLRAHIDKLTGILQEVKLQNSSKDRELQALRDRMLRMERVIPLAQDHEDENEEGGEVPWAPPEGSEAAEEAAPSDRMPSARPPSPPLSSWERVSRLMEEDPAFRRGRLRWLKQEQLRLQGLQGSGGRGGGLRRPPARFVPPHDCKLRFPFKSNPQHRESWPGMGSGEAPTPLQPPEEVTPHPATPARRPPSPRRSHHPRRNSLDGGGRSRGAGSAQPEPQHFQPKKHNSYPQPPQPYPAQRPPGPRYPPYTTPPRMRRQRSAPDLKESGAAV

[4] = target: the molecule itself; assay: cryo-EM structure; FHF with full-length FTS and FHIP1B and HOOK3 571-718, 0.9 mg/ml with 0.1% CHAPSO or 0.005% Igepal; 3.2 Å reconstruction
GST-KIF1C stalk 674-922 = target: B4; assay: cross-linking; cross-linking mass spectrometry with 10 mM EDC or 5 mM DSSO, room temperature, 60 minutes; full-length FHF or FH^571-718F bound to KIF1C stalk 674-922; conditions: both partners purified
[5] = target: T3, HOOK3 residues 451-718 (as in FH^451-718F) (human, UniProt Q86VS8 451-718); assay: cryo-EM structure; FH^451-718F bound to GST-KIF1C stalk 674-922; low resolution at the KIF1C density; conditions: both partners purified
T3 construct: The HOOK3 chain of m12, written alone for the row of two; also called HOOK3 C-terminal fragment; not shown: Strep II, N-terminal, cleaved
T3 sequence (looked up): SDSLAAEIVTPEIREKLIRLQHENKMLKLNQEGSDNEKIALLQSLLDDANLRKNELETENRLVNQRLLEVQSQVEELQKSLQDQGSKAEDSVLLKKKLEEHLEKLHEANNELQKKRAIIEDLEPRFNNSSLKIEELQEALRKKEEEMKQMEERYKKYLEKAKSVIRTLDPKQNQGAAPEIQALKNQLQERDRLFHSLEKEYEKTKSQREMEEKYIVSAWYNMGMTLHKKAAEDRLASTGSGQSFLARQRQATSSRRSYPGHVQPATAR

[6] = target: T4, HOOK3, full length (as in full-length FHF) (human, UniProt Q86VS8 1-718); assay: cross-linking; cross-linking mass spectrometry with 10 mM EDC or 5 mM DSSO, room temperature, 60 minutes; full-length FHF or FH^571-718F bound to KIF1C stalk 674-922; conditions: both partners purified
T4 construct: HOOK3, human, full length; gene codon optimised for Sf9; The HOOK3 chain of full-length FHF, written alone for the rows of two; not shown: Strep II, N-terminal, cleaved
T4 sequence (looked up): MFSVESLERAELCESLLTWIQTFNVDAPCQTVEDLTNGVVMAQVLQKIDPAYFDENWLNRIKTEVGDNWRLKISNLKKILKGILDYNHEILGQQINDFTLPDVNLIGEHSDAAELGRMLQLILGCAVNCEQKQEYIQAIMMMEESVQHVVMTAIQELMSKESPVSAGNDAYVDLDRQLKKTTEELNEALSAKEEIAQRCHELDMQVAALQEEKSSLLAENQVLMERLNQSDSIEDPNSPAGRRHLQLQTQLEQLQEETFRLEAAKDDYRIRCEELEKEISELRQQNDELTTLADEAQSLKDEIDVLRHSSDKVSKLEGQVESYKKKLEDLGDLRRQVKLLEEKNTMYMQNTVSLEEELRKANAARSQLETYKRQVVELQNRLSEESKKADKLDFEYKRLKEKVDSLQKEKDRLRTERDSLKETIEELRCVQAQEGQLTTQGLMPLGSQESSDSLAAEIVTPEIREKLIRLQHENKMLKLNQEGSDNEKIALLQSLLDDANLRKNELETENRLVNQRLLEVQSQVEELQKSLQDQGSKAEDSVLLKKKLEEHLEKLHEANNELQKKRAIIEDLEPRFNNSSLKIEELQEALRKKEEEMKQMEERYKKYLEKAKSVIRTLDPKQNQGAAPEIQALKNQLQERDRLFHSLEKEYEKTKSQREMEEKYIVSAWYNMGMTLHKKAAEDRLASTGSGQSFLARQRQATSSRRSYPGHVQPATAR

B1: GST-KIF1C stalk (residues 642-922) (domain or fragment, human, UniProt O43896 642-922, looked up)
chain: EMEKRLQDLENQYRKEKEEADLLLEQQRLYADSDSGDDSDKRSCEESWRLISSLREQLPPTTVQTIVKRCGLPSSGKRRAPRRVYQIPQRRRLQGKDPRWATMADLKMQAVKEICYEVALADFRHGRAEIEALAALKMRELCRTYGKPDGPGDAWRAVARDVWDTVGEEEGGGAGSGGGSEEGARGAEVEDLRAHIDKLTGILQEVKLQNSSKDRELQALRDRMLRMERVIPLAQDHEDENEEGGEVPWAPPEGSEAAEEAAPSDRMPSARPPSPPLSSWE
notes: also called KS; Ks; source: E. coli SoluBL21, purified (Ni-NTA, Superdex 200); not shown: GST, N-terminal, kept
dynein microtubule recruitment (TMR-dynein landing rate, TIRF) with dynactin, HOOK3 and Lis1, with against without the KIF1C stalk construct (GST-KIF1C642-922-GFP in this assay) [1]: 2.6 fold | processive events of dynein-dynactin-FHF (TIRF), with KIF1C stalk against a DDFHF control [2]: ~3.7 fold | stoichiometry N [3]: 1 dimeric KIF1C stalk per FHF

B2
binding result (full-length KIF1C-GFP): binds

B3: HOOK3 C-terminal fragment (residues 571-718) (domain or fragment, human, UniProt Q86VS8 571-718, looked up)
chain: DLEPRFNNSSLKIEELQEALRKKEEEMKQMEERYKKYLEKAKSVIRTLDPKQNQGAAPEIQALKNQLQERDRLFHSLEKEYEKTKSQREMEEKYIVSAWYNMGMTLHKKAAEDRLASTGSGQSFLARQRQATSSRRSYPGHVQPATAR
notes: The HOOK3 chain of the FHF cryo-EM construct, written alone for the rows of two; not shown: Strep II, N-terminal, cleaved
binding result [4]: binds | binding result (GST-KIF1C stalk 674-922): binds

B4
binding result [5]: binds | binding result [6]: binds
